Experimental data published in patent US20190033318A1.

Legend:
Experiment in all cases: thermal shift assay, 1 mM peptide
[1] = target: 1α PASB (HIF-1α PASB domain, 238-349) (UniProt Q16665)
[2] = target: 2α PASB (HIF-2α PASB domain, 240-350) (UniProt Q99814)
[3] = target: Trx-2α (thioredoxin-tagged HIF-2α 1-360, bHLH-PASA-PASB) (UniProt Q99814)
[4] = target: GST-1β (GST-tagged HIF-1β 1-474, isoform 2, Δ77-91) (UniProt P27540)

Sequence of 1α PASB (HIF-1α PASB domain, 238-349) (Q16665 238-349): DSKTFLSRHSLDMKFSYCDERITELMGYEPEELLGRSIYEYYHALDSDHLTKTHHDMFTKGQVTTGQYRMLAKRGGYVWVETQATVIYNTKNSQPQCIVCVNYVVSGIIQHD
Sequence of 2α PASB (HIF-2α PASB domain, 240-350) (Q99814 240-350): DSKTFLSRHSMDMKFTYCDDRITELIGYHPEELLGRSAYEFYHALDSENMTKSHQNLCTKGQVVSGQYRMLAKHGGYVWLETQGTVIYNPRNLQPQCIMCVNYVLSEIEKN
Sequence of Trx-2α (thioredoxin-tagged HIF-2α 1-360, bHLH-PASA-PASB) (Q99814 1-360): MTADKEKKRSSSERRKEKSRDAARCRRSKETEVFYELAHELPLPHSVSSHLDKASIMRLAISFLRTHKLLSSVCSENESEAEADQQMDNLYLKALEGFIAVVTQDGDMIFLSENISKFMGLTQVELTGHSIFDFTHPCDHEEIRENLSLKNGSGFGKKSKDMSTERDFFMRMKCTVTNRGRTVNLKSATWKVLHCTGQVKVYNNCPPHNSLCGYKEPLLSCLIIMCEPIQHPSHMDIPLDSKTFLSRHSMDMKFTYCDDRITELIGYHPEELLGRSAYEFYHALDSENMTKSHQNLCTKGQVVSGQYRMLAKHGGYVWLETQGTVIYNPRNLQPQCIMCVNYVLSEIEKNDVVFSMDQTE

Row | ΔTm [1] | ΔTm [2] | ΔTm [3] | ΔTm [4] | Binder
1 | -0.5 ° C. | -2.5 ° C. | -2 ° C. |  | SGWEMIQRR (cyclic peptide (first amino acid joined to the last)) [cyclo-… (SEQ ID NO 5)]
2 |  |  |  | -0.5 ° C. | CRVIIF (cyclic peptide (cyclo-, first amino acid joined to the last)) [cyclo-CRVIIF (SEQ ID NO 4)]
